Measurements as given in patent publication US20230220084A1 (DRAGONFLY THERAPEUTICS, published 2023).
Each block holds one binder with its values, some of them ahead of it.

How the values were obtained:
[1] = molecular target: T1, hCLEC12A-His fusion protein (human, UniProt Q5QGZ9 65-265, limits assumed); experiment: yeast display, flow cytometry
T1 construct: Recombinant His-tagged human CLEC12A; also called Human CLEC12A-His; recombinant human CLEC12A
T1 sequence (looked up): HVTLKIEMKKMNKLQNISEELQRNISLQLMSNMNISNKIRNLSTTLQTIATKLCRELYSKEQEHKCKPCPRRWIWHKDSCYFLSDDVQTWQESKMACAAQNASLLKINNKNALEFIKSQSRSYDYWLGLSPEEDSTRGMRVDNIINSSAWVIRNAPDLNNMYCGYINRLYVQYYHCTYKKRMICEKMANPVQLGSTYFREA

[2] = molecular target: T1, hCLEC12A-His fusion protein; experiment: yeast display flow cytometry with hCLEC12A-his (PE-A against FITC-A)
[3] = molecular target: T1, hCLEC12A-His fusion protein; experiment: SPR, purified murine mAb
cCLEC12A-His [4] = molecular target: T2, cCLEC12A-His (cynomolgus monkey, UniProt A0A2K5WXQ4 71-271); experiment: SPR, purified murine mAb
T2 construct: Recombinant His-tagged cynomolgus CLEC12A; also called Cyno CLEC12A-His; recombinant cyno CLEC12A
T2 sequence: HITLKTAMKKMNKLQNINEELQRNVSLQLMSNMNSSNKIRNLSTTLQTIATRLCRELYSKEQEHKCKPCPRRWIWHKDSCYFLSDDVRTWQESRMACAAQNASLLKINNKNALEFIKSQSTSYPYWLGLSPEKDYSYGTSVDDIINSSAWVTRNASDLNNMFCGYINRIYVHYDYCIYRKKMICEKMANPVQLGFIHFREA

[5] = molecular target: T3, human CLEC12A expressed on cells (human, UniProt Q5QGZ9 1-265); experiment: flow cytometry, PL21 cells
T3 construct: whole, on cells; also called RMA-hCLEC12A; hCLEC12A+Ba/F3
T3 sequence (looked up): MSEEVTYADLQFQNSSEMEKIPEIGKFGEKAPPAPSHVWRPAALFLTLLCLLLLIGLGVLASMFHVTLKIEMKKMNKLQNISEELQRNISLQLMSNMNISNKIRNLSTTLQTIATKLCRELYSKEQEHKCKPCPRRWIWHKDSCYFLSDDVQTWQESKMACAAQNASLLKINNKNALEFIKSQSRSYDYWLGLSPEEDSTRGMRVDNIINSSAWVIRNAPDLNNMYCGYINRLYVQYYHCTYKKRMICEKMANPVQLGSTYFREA

cCLEC12A-His [6] = molecular target: T2, cCLEC12A-His; experiment: SPR, purified murine mAb, Cyno CLEC12A-His
[7] = molecular target: T1, hCLEC12A-His fusion protein; experiment: SPR screening
[8] = molecular target: T1, hCLEC12A-His fusion protein; experiment: SPR, purified murine mAb, Human CLEC12A-His
[9] = molecular target: T1, hCLEC12A-His fusion protein; experiment: SPR, analyte glycosylated hCLEC12A
De-sialylated hCLEC12A = molecular target: T4, De-sialylated hCLEC12A (human, UniProt Q5QGZ9 65-265, limits assumed, glycans de-sialylated); experiment: SPR, analyte de-sialylated hCLEC12A
T4 construct: Same protein as m1 after removal of sialic acid; also called de-sialylated version of hCLEC12A
T4 sequence (looked up): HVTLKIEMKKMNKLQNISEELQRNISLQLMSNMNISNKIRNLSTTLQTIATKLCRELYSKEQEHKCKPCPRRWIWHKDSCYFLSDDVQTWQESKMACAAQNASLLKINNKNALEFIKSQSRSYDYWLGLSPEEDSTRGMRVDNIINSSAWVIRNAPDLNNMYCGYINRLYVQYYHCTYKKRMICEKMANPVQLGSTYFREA

De-glycosylated hCLEC12A = molecular target: T5, De-glycosylated hCLEC12A (human, UniProt Q5QGZ9 65-265, limits assumed, N-glycans removed with PNGase); experiment: SPR, analyte de-glycosylated hCLEC12A
T5 construct: Same protein as m1 after PNGase treatment; also called PNGase-treated hCLEC12A; deglycosylated version of hCLEC12A
T5 sequence (looked up): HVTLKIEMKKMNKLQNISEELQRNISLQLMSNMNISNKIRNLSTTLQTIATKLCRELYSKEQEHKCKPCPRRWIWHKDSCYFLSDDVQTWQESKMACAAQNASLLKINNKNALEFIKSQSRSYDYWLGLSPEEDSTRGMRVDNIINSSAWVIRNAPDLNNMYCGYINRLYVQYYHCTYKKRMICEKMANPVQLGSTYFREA

[10] = molecular target: T1, hCLEC12A-His fusion protein; experiment: SPR screening, fully purified murine mAb

B2: scFv CDRH3 variant YDYDDVLDY (SEQ ID NO:144), yeast display (scFv)
scFv: QLQLQESGPGLVKPSETLSLTCTVSGFSLTNYGLHWIRQPPGKCLEWIGVIWSGGKTDYNPSLKSRVTISKDTSKNQFSLKLSSVQAADTAVYYCAKYDYDDVLDYWGQGTLVTVSSGGGGSGGGGSGGGGSGGGGSDIQMTQSPSSLSASVGDRVTITCHASQNINFWLSWYQQKPGKAPKLLIYEASNLHTGVPSRFSGSGSGTRFTLTISSLQPEDIATYYCQQSHSYPLTFGCGTKLEIK
notes: As m72
binding result [2]: no binding

B3: scFv CDRH3 variant YDYDDTLDY (SEQ ID NO:145), yeast display (scFv)
scFv: QLQLQESGPGLVKPSETLSLTCTVSGFSLTNYGLHWIRQPPGKCLEWIGVIWSGGKTDYNPSLKSRVTISKDTSKNQFSLKLSSVQAADTAVYYCAKYDYDDTLDYWGQGTLVTVSSGGGGSGGGGSGGGGSGGGGSDIQMTQSPSSLSASVGDRVTITCHASQNINFWLSWYQQKPGKAPKLLIYEASNLHTGVPSRFSGSGSGTRFTLTISSLQPEDIATYYCQQSHSYPLTFGCGTKLEIK
notes: As m72
binding result [2]: no binding

B6: scFv CDRH3 variant YDYDDILDY (SEQ ID NO:142), yeast display (scFv)
scFv: QLQLQESGPGLVKPSETLSLTCTVSGFSLTNYGLHWIRQPPGKCLEWIGVIWSGGKTDYNPSLKSRVTISKDTSKNQFSLKLSSVQAADTAVYYCAKYDYDDILDYWGQGTLVTVSSGGGGSGGGGSGGGGSGGGGSDIQMTQSPSSLSASVGDRVTITCHASQNINFWLSWYQQKPGKAPKLLIYEASNLHTGVPSRFSGSGSGTRFTLTISSLQPEDIATYYCQQSHSYPLTFGCGTKLEIK
notes: As m72
binding result [1]: binds

B7: 15A10.G8 (antibody, V domains shown)
VH: EVQLQESGAELVRSGASIKLSCAASAFNIKDYFIHWVRQRPDQGLEWIGWIDPENDDTEYAPKFQDKATMTADTSSNTAYLQLSSLTSADTAVYYCNALWSRGGYFDYWGQGTTLTVSS
VL: EVLLTQSPAIIAASPGEKVTITCSARSSVSYMSWYQQKPGSSPKIWIYGISKLASGVPARFSGSGSGTYFSFTINNLEAEDVATYYCQQRSYYPFTFGSGTKLEIK
notes: Murine mAb purified from the hybridoma subclone
Kd [3]: 1600 pM | koff [3]: 0.000494 s⁻¹ | kon [3]: 301000 M⁻¹ s⁻¹ | Kd (cCLEC12A-His [4]): 3300 pM | koff (cCLEC12A-His [4]): 0.000659 s⁻¹ | kon (cCLEC12A-His [4]): 196000 M⁻¹ s⁻¹

B9: m9F11-hIgG1 (antibody, V domains shown)
VH: EVQLQESGGGLVQPGGSRKLSCAASGFTFNSFGMHWVRQAPEKGLEWVAFISSGSTSIYYANTVKGRFTISRDNPKNTLFLQMTSLRSEDTAMYYCARDGYPTGGAMDYWGQGTSVTVSS
VL: DIKMTQSPSSMYASLGERVTITCKASQDIYNYLSWFQLKPGKSPRPLIYRANILVSGVPSKFSGSGSGQDYSLTINSLEYEDLGIYYCLQFDAFPFTFGSGTKLEIK
notes: also called chimeric parent mouse 9F11.B7 mAb
Kd [7]: 1070 pM | koff [7]: 0.00102 s⁻¹ | kon [7]: 950000 M⁻¹ s⁻¹

B10: 13E1.A4 (antibody, V domains shown)
VH: EVQLQESGPELEKPGASVRISCKASGYSFTAYNMNWVKQSNGKSLEWIGNIDPSYGDATYNQKFKGKATLTVDKSSSTAYMQLKSLTSEDSAVYYCARDNYYGSGYFDYWGQGTTLTVSS
VL: SVLMTQTPLSLPVSLGDRASISCRSSQGIVHINGNTYLEWYLQKPGQSPKLLIYKVSNRFSGVPDRFSGSGSGTDFTLKISRVEAEDLGVYYCFQGSHVPWTFGGGTKLEIK
notes: as for B7
binding result [8]: binds

B12: 16B8.C8 (antibody, V domains shown)
VH: EVQLQESGPGLVQPSQSLSITCTVSGFSLTNYGLHWVRQSPGKGLEWLGVIWSGGKTDYNTPFKSRLSISKDISKNQVFFKMNSLQPNDTAIYFCAKYDYDDSLDYWGQGTSVTVSS
VL: DIQMNQSPSSLSASLGDTIAITCHASQNINFWLSWYQQKPGNIPKLLIYEASNLHTGVPSRFSGSGSGTRFTLTISSLQPEDIATYYCQQSHSYPLTFGQGTKLEIK
notes: Murine mAb purified from the hybridoma subclone; also called Murine 16B8 mAb; Murine 16B8. mAb
Kd [3]: 10 pM | koff [3]: 4.44e-05 s⁻¹ | kon [3]: 4.05e+06 M⁻¹ s⁻¹ | EC50 [5]: 180 pM | Max MFI [5]: 300 MFI | Kd [9]: 12 pM | koff [9]: 4.7e-05 s⁻¹ | kon [9]: 4.05e+06 M⁻¹ s⁻¹ | Kd (De-sialylated hCLEC12A): 7 pM | koff (De-sialylated hCLEC12A): 3.62e-05 s⁻¹ | kon (De-sialylated hCLEC12A): 5.25e+06 M⁻¹ s⁻¹ | Kd (De-glycosylated hCLEC12A): 11 pM | koff (De-glycosylated hCLEC12A): 4.45e-05 s⁻¹ | kon (De-glycosylated hCLEC12A): 4.26e+06 M⁻¹ s⁻¹ | Kd [10]: 8 pM | koff [10]: 2.35e-05 s⁻¹ | kon [10]: 3.03e+06 M⁻¹ s⁻¹ | binding result (cCLEC12A-His [6]): no binding

B13: Merus-CLL1 (antibody, V domains shown)
VH: EVQLVQSGAEVKKPGASVKVSCKASGYTFTSYYMHWVRQAPGQGLEWMGIINPSGGSTSYAQKFQGRVTMTRDTSTSTVYMELSSLRSEDTAVYYCARGNYGDEFDYWGQGTLVTVSS
VL: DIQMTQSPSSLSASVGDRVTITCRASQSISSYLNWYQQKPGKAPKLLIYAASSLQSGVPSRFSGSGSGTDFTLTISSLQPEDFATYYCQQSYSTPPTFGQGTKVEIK
EC50 [5]: 2020 pM | Max MFI [5]: 201 MFI

Next, values leading:

binding result [1]: binds
B1: scFv CDRH3 variant YDYDDALDY (SEQ ID NO:141), yeast display (scFv)
scFv: QLQLQESGPGLVKPSETLSLTCTVSGFSLTNYGLHWIRQPPGKCLEWIGVIWSGGKTDYNPSLKSRVTISKDTSKNQFSLKLSSVQAADTAVYYCAKYDYDDALDYWGQGTLVTVSSGGGGSGGGGSGGGGSGGGGSDIQMTQSPSSLSASVGDRVTITCHASQNINFWLSWYQQKPGKAPKLLIYEASNLHTGVPSRFSGSGSGTRFTLTISSLQPEDIATYYCQQSHSYPLTFGCGTKLEIK

binding result [1]: binds
B4: scFv CDRH3 variant YDYDDLLDY (SEQ ID NO:143), yeast display (scFv)
scFv: QLQLQESGPGLVKPSETLSLTCTVSGFSLTNYGLHWIRQPPGKCLEWIGVIWSGGKTDYNPSLKSRVTISKDTSKNQFSLKLSSVQAADTAVYYCAKYDYDDLLDYWGQGTLVTVSSGGGGSGGGGSGGGGSGGGGSDIQMTQSPSSLSASVGDRVTITCHASQNINFWLSWYQQKPGKAPKLLIYEASNLHTGVPSRFSGSGSGTRFTLTISSLQPEDIATYYCQQSHSYPLTFGCGTKLEIK
notes: As m72

binding result [2]: no binding
B5: scFv CDRH3 variant YDYDESLDY (SEQ ID NO:146), yeast display (scFv)
scFv: QLQLQESGPGLVKPSETLSLTCTVSGFSLTNYGLHWIRQPPGKCLEWIGVIWSGGKTDYNPSLKSRVTISKDTSKNQFSLKLSSVQAADTAVYYCAKYDYDESLDYWGQGTLVTVSSGGGGSGGGGSGGGGSGGGGSDIQMTQSPSSLSASVGDRVTITCHASQNINFWLSWYQQKPGKAPKLLIYEASNLHTGVPSRFSGSGSGTRFTLTISSLQPEDIATYYCQQSHSYPLTFGCGTKLEIK
notes: As m72

Kd [3]: 1400 pM | koff [3]: 0.00157 s⁻¹ | kon [3]: 1.14e+06 M⁻¹ s⁻¹ | EC50 [5]: 560 pM | Max MFI [5]: 217 MFI | binding result (cCLEC12A-His [6]): no binding
B8: 9F11.B7 (antibody, V domains shown)
VH: EVQLQESGGGLVQPGGSRKLSCAASGFTFNSFGMHWVRQAPEKGLEWVAFISSGSTSIYYANTVKGRFTISRDNPKNTLFLQMTSLRSEDTAMYYCARDGYPTGGAMDYWGQGTSVTVSS
VL: DIKMTQSPSSMYASLGERVTITCKASQDIYNYLSWFQLKPGKSPRPLIYRANILVSGVPSKFSGSGSGQDYSLTINSLEYEDLGIYYCLQFDAFPFTFGSGTKLEIK
notes: as for B7

EC50 [5]: 640 pM | Max MFI [5]: 186 MFI | binding result (cCLEC12A-His [6]): no binding
B11: 9E4.B7 (antibody, V domains shown)
VH: EVQLQESGAELMKPGASVKISCRTTGYTFSTYWIEWVKQRPGRGPEWIGELFPGNSDTTLNEKFTGKATFTADSSSNTAYMQLSSLTSEDSAVYYCARSGYYGSSLDYWGQGTTLTVSS
VL: GIVMTQSPASLSASVGETVTITCRAGENIHSYLAWYQQKQGKSPQLLVYNAKTLAEGVPSRFSGSGSGTQFSLKINSLQPEDFGSYYCQHHYGTPRTFGGGTKLEIK
notes: as for B7

EC50 [5]: 5000 pM | Max MFI [5]: 265 MFI
B14: Genentech-h6E7 (antibody, V domains shown)
VH: EVQLVQSGAEVKKPGASVKVSCKASGYSFTDYYMHWVRQAPGQGLEWIGRINPYNGAAFYSQNFKDRVTLTVDTSTSTAYLELSSLRSEDTAVYYCAIERGADLEGYAMDYWGQGTLVTVSS
VL: DIQMTQSPSSLSASVGDRVTITCRASQSVSTSSYNYMHWYQQKPGKPPKLLIKYASNLESGVPSRFSGSGSGTDFTLTISSLQPEDFATYYCQHSWEIPLTFGQGTKVEIK
